Measurements from patent US20180244777A1 (NUMAB THERAPEUTICS, published 2018).
Like-named read-outs stand apart in the source and are kept apart here.

T1: linear 15mer peptides derived from human CD3ε residues 5-20 (Set 3) (human)
T1 construct: also called peptides spanning residues 5-20
T1 peptide: EEMGGITQTPYKVSIS

T2: linear 15mer peptides derived from cynomolgus CD3ε residues 5-20 (Set 4) (cynomolgus)
T2 construct: also called peptides spanning residues 5-20
T2 peptide: EEMGSITQTPYQVSIS

T3: linear 15mer peptide derived from human CD3ε residues 2-16 (wild type of the substitution library, Set 1) (human)
T3 construct: Probed as a saturation mutagenesis library on a peptide array
T3 peptide: DGNEEMGGITQTPYK

T4: linear 15mer peptide derived from cynomolgus CD3ε residues 2-16 (wild type of the substitution library, Set 2) (cynomolgus)
T4 construct: Probed as a saturation mutagenesis library on a peptide array
T4 peptide: DGNEEMGSITQTPYQ

T5: mouse IL23R (mouse, UniProt Q8K4B4 24-374, limits assumed)
T5 sequence (looked up): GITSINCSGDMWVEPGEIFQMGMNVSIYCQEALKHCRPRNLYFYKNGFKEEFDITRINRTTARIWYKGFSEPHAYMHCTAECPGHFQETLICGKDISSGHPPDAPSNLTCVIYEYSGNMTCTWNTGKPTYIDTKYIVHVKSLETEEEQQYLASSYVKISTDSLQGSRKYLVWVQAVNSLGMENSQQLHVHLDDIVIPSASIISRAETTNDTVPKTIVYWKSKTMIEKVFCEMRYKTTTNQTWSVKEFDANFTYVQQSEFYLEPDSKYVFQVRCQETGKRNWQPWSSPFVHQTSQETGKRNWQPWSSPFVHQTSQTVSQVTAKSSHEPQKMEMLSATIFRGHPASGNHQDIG


Key:
[1] = target: T6, cynomolgus monkey heterodimeric single-chain CD3εγ extracellular domain (cynomolgus monkey, UniProt Q95LI5 22-117; Q95LI7 23-113); assay: SPR, rabbit IgG captured, cyno single-chain CD3εγ ECD injected
T6 sequence (Q95LI7 other isoform, or with tags, fused parts or gaps): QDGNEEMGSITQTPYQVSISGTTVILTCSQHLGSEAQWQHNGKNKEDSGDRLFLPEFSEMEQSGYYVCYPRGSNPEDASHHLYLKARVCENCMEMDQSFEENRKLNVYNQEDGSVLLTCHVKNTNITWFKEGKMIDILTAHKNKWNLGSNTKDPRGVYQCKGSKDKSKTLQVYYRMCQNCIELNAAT

[2] = target: T7, cynomolgus monkey CD3ε expressed on the surface of HSC-F T cells (cynomolgus monkey, UniProt Q95LI5 22-198); assay: cell-based ELISA on cyno HSC-F T cells
T7 construct: whole, on cells; also called cyno HSC-F T cells
T7 sequence (Q95LI5 22-198): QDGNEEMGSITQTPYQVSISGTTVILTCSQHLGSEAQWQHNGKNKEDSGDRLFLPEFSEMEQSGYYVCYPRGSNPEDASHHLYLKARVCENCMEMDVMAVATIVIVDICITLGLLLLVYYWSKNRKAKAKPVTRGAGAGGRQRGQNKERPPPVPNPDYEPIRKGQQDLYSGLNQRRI

[3] = target: T8, human CD3ε expressed on the cell surface of T cells (Jurkat cells; human CD8+ T cells) (human, UniProt P07766 23-207); assay: cell-based ELISA on Jurkat cells
T8 construct: whole, on cells; also called native CD3ε embedded in the TCR complex on Jurkat cells
Method: (§1) Jurkat cells (clone E6-1), a human T cell line, were seeded at 300,000 cells/well in round bottom 96-well plates in 100 μl phosphate-buffered saline (PBS) containing 10% FBS. Five-fold serial dilutions of anti-CD3 rabbit monoclonal antibodies ranging from 90 nM to 0.0058 nM were added to the plates in 100 μl PBS containing 10% FBS. […] This secondary antibody was linked to the enzyme horseradish peroxidase (HRP). HRP activity was measured by addition of TMB substrate (3,3′,5,5′-tetramethylbenzidine, KPL, Cat. No. 53-00-00), which in a colorimetric reaction is processed by the HRP. The color intensity of the processed substrate is directly proportional to the amount of anti-CD3 antibody bound to Jurkat cells. To quantify color intensity, light absorbance (optical density) at the respective wave length was measured using a microtiter plate reader (Infinity reader M200 Pro, Tecan).
(§2) To correct for unspecific binding of the antibodies to unknown components presented on the cell surface of Jurkat cells, a CD3ε deficient derivative of the Jurkat T cell line (J.RT3-T3.5) was used. Binding of the monoclonal antibodies to this cell line was measured as described above for the Jurkat cells. For quantification of specific binding to Jurkat cells, the optical density for binding to the negative control was subtracted from the optical density for binding to Jurkat cells. Data were analyzed using a four-parameter logistic curve fit using the Softmax Data Analysis Software (Molecular Devices), and the molar concentration of anti-CD3 antibody required to reach 50% binding (EC₅₀, mid-OD of the standard curve) was derived from dose response curves.

[4] = target: T6, cynomolgus monkey heterodimeric …; assay: SPR; ratio of the KDs for cyno and human single-chain CD3εγ
[5] = target: T1, linear 15mer peptides derived from …; assay: peptide array ELISA, Set 3
Method: (§3) The binding of the antibodies to each of the synthesized peptides was tested by ELISA. The peptide arrays were incubated with primary antibody solution (overnight at 4° C.). After washing, the peptide arrays were incubated with a 1/1000 dilution of an antibody peroxidase conjugate (SBA, cat.nr.2010-05) for one hour at 25° C. After washing, the peroxidase substrate 2,2′-azino-di-3-ethylbenzthiazoline sulfonate (ABTS) and 2 μl/ml of 3% H₂O₂ were added. After one hour, the color development was measured. The color development was quantified with a charge coupled device (CCD)—camera and an image processing system.

[6] = target: T2, linear 15mer peptides derived from …; assay: peptide array ELISA, Set 4
Method: as §3

[7] = target: T3, linear 15mer peptide derived from human …; assay: 15mer peptide array ELISA
[8] = target: T4, linear 15mer peptide derived from …; assay: 15mer peptide array ELISA
[9] = target: T8, human CD3ε expressed on the cell …; assay: cell-based or functional assay
[10] = target: T8, human CD3ε expressed on the cell …; assay: cell-based ELISA on Jurkat cells, CD3ε-deficient Jurkat subtracted
Method: as §1, §2

[11] = target: T6, cynomolgus monkey heterodimeric …; assay: SPR, rabbit IgG captured, cyno single-chain CD3εγ ECD injected; remark: listed apart in the source
[12] = target: T9, human heterodimeric single-chain CD3εγ extracellular domain (human, UniProt P07766 23-126; P09693 23-116); assay: SPR, rabbit IgG captured, human single-chain CD3εγ ECD injected
T9 construct: extracellular domain; Produced in-house; also called scCD3γε; human CD3ge
Method: (§4) Binding affinities of monoclonal rabbit anti-CD3 antibodies were measured by surface plasmon resonance (SPR) using a MASS-1 SPR instrument (Sierra Sensors). […] Rabbit monoclonal antibodies were captured by the immobilized anti-rabbit IgG antibody. Two-fold serial dilutions of human heterodimeric single-chain CD3εγ extracellular domain (produced in-house) ranging from 90 to 2.81 nM were injected into the flow cells for 3 min and dissociation of the protein from the IgG captured on the sensor chip was allowed to proceed for 5 min. After each injection cycle, surfaces were regenerated with two injections of 10 mM glycine-HCl. The apparent dissociation (kd) and association (ka) rate constants and the apparent dissociation equilibrium constant (KD) were calculated with the MASS-1 analysis software (Analyzer, Sierra Sensors) using one-to-one Langmuir binding model.

[13] = target: T9, human heterodimeric single-chain CD3εγ …; assay: as above; remark: listed apart in the source
Method: as §4

mouse CD3ε = mouse CD3ε (mouse, UniProt P22646 22-108, limits assumed); assay: SPR
mouse CD3ε, sequence (P22646 22-108 limits assumed): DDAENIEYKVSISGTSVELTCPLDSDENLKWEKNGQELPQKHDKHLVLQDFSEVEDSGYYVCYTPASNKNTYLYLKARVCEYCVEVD

mouse IL23R = target: T5, mouse IL23R; assay: SPR

| Binder | Kd [1] [nM] | EC50 [2] [nM] | EC50 [3] [nM] | KD (human)/KD (cyno) [4] | binding result [5] | binding result [6] | binding result [7] | binding result [8] | Fold increase in CD69 expression [MFI normalized to neg. ctrl.], 1.25 µg/ml anti-CD3 IgG [9] [fold] | Fold increase in CD69 expression [MFI normalized to neg. ctrl.], 5 µg/ml anti-CD3 IgG [9] [fold] | Fold increase in CD69 expression [MFI normalized to neg. ctrl.], 20 µg/ml anti-CD3 IgG [9] [fold] | EC50 [10] [nM] | Kd [11] [nM] | koff [11] [s⁻¹] | kon [11] [M⁻¹ s⁻¹] | Kd [12] [nM] | Kd [13] [nM] | koff [13] [s⁻¹] | kon [13] [M⁻¹ s⁻¹] | other results |
| --- | --- | --- | --- | --- | --- | --- | --- | --- | --- | --- | --- | --- | --- | --- | --- | --- | --- | --- | --- | --- |
| clone-06 (antibody, V domains shown, Recombinant rabbit IgG; also called Clone 6) VH: QSVEESGGRLVTPGTPLTLTCTVSGFPLSSYAMIWVRQAPGKGLEWIGMILRAGNIYYASWVKGRVTISKTSTTVDLKITSPTTEDTATYFCARRHYNREGYPIGIGDLWGPGTLVTVSS VL: AQVLTQTPSSVSAAVGGTVTISCQSSESVYNNKRLSWFQQKPGQPPKQLIYTASSLASGVPSRFKGSGSGTQFTLTISDLECDDAATYYCQGEFTCSNADCFTFGGGTEVVVKG | 8.95 | 1.6 | 0.67 | 4 | no binding | no binding | binds | binds | 2.7 | 5.1 | 5.3 | 0.67 | 8.95 | 0.00397 | 444000 | 2.23 | 2.23 | 0.00138 | 618000 |  |
| clone-03 (antibody, V domains shown, Recombinant rabbit IgG; also called Clone 3) VH: QSLEESGGRLVTPGTPLTLTCTVSGFPLNRYAMLWVRQAPGKGLEWIGLITRADKKYYASWAKGRFTISKTSTTVDLEITGPTTEDTATYFCARRHYNTDGYPIAIGDLWGPGTLVTVSS VL: AQVLTQTPSSVSAAVGGTVTISCQSNENIYSNNRLSWFQQKPGQPPNQLIYSASSLASGVPSRFKGSGSGTQFTLTISDLECDDAATYYCQGEFNCNSADCFTFGGGTEVVVKG | 11.5 | 23.9 | 1.45 | 13 | no binding | no binding | binds | binds | 2.6 | 4.6 | 6.6 | 1.45 | 11.5 | 0.00403 | 350000 | 0.905 | 0.905 | 0.000498 | 551000 |  |
| clone-02 (antibody, V domains shown, Recombinant rabbit IgG; also called Clone 2) VH: QSLEESGGRLVTPGTPLTLTCTVSGFPLSAYAMIWVRQAPGKGLEWIGMIIRSGTVYYANWAKGRFTISKTSTTVDLKITSPTTEDTATYFCARRHYNADGYPIGIGDLWGPGTLVTVSS VL: AQVLTQTPSSVSAVVGGTVTISCQSSESVYSNNRLSWFQQKPGQPPKLLIYSASTLASGVPSRFKGSGSGTQFTLTITDLECDDAATYFCQGEFSCSSVDCFSFGGGTEVVVKG | 3.86 | 3.82 | 0.71 | 13 | no binding | no binding | binds | binds | 3.3 | 4.6 | 7.4 | 0.71 | 3.86 | 0.00258 | 668000 | 0.304 | 0.304 | 0.000264 | 869000 |  |
| PRO386 (bispecific antibody, Heterodimer; 2C11 Fab with an anti-IL23R scFv 14-11-D07-sc01 on the C-terminus of each chain; also called Tribody; bispecific, trivalent Fab-scFv fusion surrogate molecule) light: DIQMTQSPSSLPASLGDRVTINCQASQDISNYLNWYQQKPGKAPKLLIYYTNKLADGVPSRFSGSGSGRDSSFTISSLESEDIGSYYCQQYYNYPWTFGPGTKLEIKRRTVAAPSVFIFPPSDEQLKSGTASVVCLLNNFYPREAKVQWKVDNALQSGNSQESVTEQDSKDSTYSLSSTLTLSKADYEKHKVYACEVTHQGLSSPVTKSFNRGECGGGGSGGGGSHMDIQMTQSPSSLSASVGDRVTITCQASENIYSFLAWYQQKPGKAPKLLIYSASKLAAGVPSRFSGSGSGTDFTLTISSLQPEDFATYYCQQTNRYSNPDIYNVFGQGTKLTVLGGGGGSGGGGSGGGGSGGGGSEVQLVESGGGLVQPGGSLRLSCAASGIDFNSNYYMCWVRQAPGKGLEWIGCIYVGSHVNTYYANWAKGRFTISRDNSKNTVYLQMNSLRAEDTAVYYCATSGSSVLYFKFWGQGTLVTVSS heavy: EVQLVESGGGLVQPGKSLKLSCEASGFTFSGYGMHWVRQAPGRGLESVAYITSSSINIKYADAVKGRFTVSRDNAKNLLFLQMNILKSEDTAMYYCARFDWDKNYWGQGTMVTVSSASTKGPSVFPLAPSSKSTSGGTAALGCLVKDYFPEPVTVSWNSGALTSGVHTFPAVLQSSGLYSLSSVVTVPSSSLGTQTYICNVNHKPSNTKVDKKVEPKSCGGGGSGGGGSHMDIQMTQSPSSLSASVGDRVTITCQASENIYSFLAWYQQKPGKAPKLLIYSASKLAAGVPSRFSGSGSGTDFTLTISSLQPEDFATYYCQQTNRYSNPDIYNVFGQGTKLTVLGGGGGSGGGGSGGGGSGGGGSEVQLVESGGGLVQPGGSLRLSCAASGIDFNSNYYMCWVRQAPGKGLEWIGCIYVGSHVNTYYANWAKGRFTISRDNSKNTVYLQMNSLRAEDTAVYYCATSGSSVLYFKFWGQGTLVTVSS |  |  |  |  |  |  |  |  |  |  |  |  |  |  |  |  |  |  |  | Kd (mouse CD3ε): 11.5 nM; koff (mouse CD3ε): 0.00196 s⁻¹; kon (mouse CD3ε): 171000 M⁻¹ s⁻¹; Kd (mouse IL23R): 0.583 nM; koff (mouse IL23R): 0.000533 s⁻¹; kon (mouse IL23R): 915000 M⁻¹ s⁻¹ |
